Results reported in patent publication US20060257938A1, “Method of screening for drugs that block ligand binding to a lipid binding protein” (priority 2005, published 2006).
Values joined by “and” are separate entries in the source; they are usually repeats but may differ in a detail not shown here. Equal values may be shown once.

T1: ADIFAB (Rattus norvegicus, UniProt P02693)
T1 construct: purchased FFA Sciences LLC, San Diego, Calif
T1 sequence (P02693 2-132): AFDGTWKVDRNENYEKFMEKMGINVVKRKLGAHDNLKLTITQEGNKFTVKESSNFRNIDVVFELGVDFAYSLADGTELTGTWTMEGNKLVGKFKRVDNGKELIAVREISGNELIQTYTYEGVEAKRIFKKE


Tests used:
ADIFAB = molecular target: T1, ADIFAB; test: ADIFAB screening assay in 96-well plates (emission ratio 505/432); format: binding
Excerpt: In a preferred embodiment, the probe is a fatty acid binding protein (FABP), more preferably a recombinant rat intestinal fatty acid binding protein (rI-FABP), which has been derivatized with acrylodan. DNA and protein sequences for Fatty Acid Binding Proteins (FABPs) are shown in the sequence listing. […] The rat fatty acid binding protein is post-translationally modified in the rat, with the modifications including the removal of the N-terminal methionine and the acetylation of the “new” N-terminal residue Ala. Protein sequences are numbered starting with the first residue of the mature protein. Thus, Ala is residue 1 in the corresponding protein shown as SEQ ID NO: 2. […]
Five identical 96-well plates were prepared with 0.5 μM ADIFAB and 1% dimethyl sulfoxide in 200 μL aqueous buffer (20 mM HEPES, 140 mM NaCl, 5 mM KCl, 1 mM Na2HPO4, pH 7.4) to test assay reproducibility, precision, and quality. Wells were excited at 386 nm and the emission detected at 432 and 505 nm with a fluorescence plate reader connected via fiber optic cables to a standard Spex spectrofluorometer. The emission ratio (505/432), which determines the amount of bound […], was calculated for each well. A positive control (4 μM sodium oleate (OA)) was added to each well and the ratio was measured again. […] The Z′-factor, as defined below, provides a quantitative assessment of the assay [Zhang, J., et al J. Biomol. […]

[1] = Probe fluorescence intensity change with UCB:BSA; format: binding
[2] = Binding affinities of ADIFAB2 compared with ADIFAB; details: greater than ADIFAB
Excerpt: ADIFAB2 also has an altered spectral response, making it especially useful for measurements of FFAu in blood samples (Apple et al, Clinical Proteomics, (2004) 1:41-44, U.S. patent application Ser. No. 10/670,958). The wavelengths at the maximum intensities emitted by these fluorescently-labeled I-FABP's in the absence of FFA is about 420 to 480 nm. The emission wavelengths at the maximum intensities emitted by these fluorescently-labeled I-FABP's with FFA bound are between about 495 to 580 nm. Experiments typically involve measuring the fluorescence response within both emission maxima or at wavelengths for which the effect of interfering molecules such as hemoglobin can be eliminated as described in U.S. application Ser. No. 10/670958 and PCT/US2004/030521 and the calculation of the ratio ‘R’ of the two fluorescence intensities. The baseline value for this ratio, measured in the absence of analyte, is designated R0.

[3] = Probe fluorescence ratio response to oleic acid relative to ADIFAB2; format: binding; details: response relative to ADIFAB2
Procedure, shortened: (§1)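 Each fatty acid's response was expressed relative to ADIFAB2, the rI-FABP-L72A probe, as ΔR/ΔRreference. ΔR is the change in the background-corrected two-wavelength intensity ratio R=Fλ1/Fλ2 from its analyte-free baseline R0. Emission was read near about 420-480 nm for unbound and about 495-580 nm for FFA-bound probe.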

[4] = Response profile of probe to fatty acids (Table 2); format: binding
[5] = Probe fluorescence ratio response to linoleic acid relative to ADIFAB2; format: binding; details: response relative to ADIFAB2
Procedure, shortened: as §1

[6] = Probe fluorescence ratio response to palmitoleic acid relative to ADIFAB2; format: binding; details: response relative to ADIFAB2
Procedure, shortened: as §1

[7] = Probe fluorescence ratio response to palmitic acid relative to ADIFAB2; format: binding; details: response relative to ADIFAB2
Procedure, shortened: as §1

[8] = Probe fluorescence ratio response to stearic acid relative to ADIFAB2; format: binding; details: response relative to ADIFAB2
Procedure, shortened: as §1

[9] = Probe fluorescence ratio response to linolenic acid relative to ADIFAB2; format: binding; details: response relative to ADIFAB2
Procedure, shortened: as §1

[10] = Probe fluorescence ratio response to arachidonic acid relative to ADIFAB2; format: binding; details: arachidonic acid; response relative to ADIFAB2
Procedure, shortened: as §1

binding affinities relative to ADIFAB [2]	Molecule	ρc+ average ratio (505/432), Positive Control (+OA) (ADIFAB; 4 μM OA, 0.5 μM ADIFAB, 1% dimethyl sulfoxide, one value per plate 1-5)	ΔR (ADIFAB; 4 μM oleate, positive control)	ΔI/Io 1:1 UCB:BSA 440 nm ([1]; 1:1 UCB:BSA, 440 nm)	ΔI/Io 1:1 UCB:BSA 500 nm ([1]; 1:1 UCB:BSA, 500 nm)	ΔI/Io 1:2 UCB:BSA 440 nm ([1]; 1:2 UCB:BSA, 440 nm)	ΔI/Io 1:2 UCB:BSA 500 nm ([1]; 1:2 UCB:BSA, 500 nm)	DR/DR OA [3]	response profile [4]	DR/DR LA [5]	DR/DR POA [6]	DR/DR PA [7]	DR/DR SA [8]	DR/DR LNA [9]	DR/DR AA [10]
	CCCCCCCC/C=C\CCCCCCCC(=O)[O-].[Na+] [OA, sodium oleate]	1.77 and 1.84 and 1.81 and 1.68 and 1.83	1.8												
about 10 fold	ADIFAB2: acrylodan-derivatized rI-FABP with Ala substituted for Leu at position 72 (rI-FABP-L72A), SEQ ID NO: 4 (protein, listed as Rattus norvegicus, acrylodan label; MUTAGEN (72)...(72) rat intestinal fatty acid binding protein with alanine substitution for leucine at position 72) AFDGTWKVDRNENYEKFMEKMGINVVKRKLGAHDNLKLTITQEGNKFTVKESSNFRNIDVVFELGVDFAYSAADGTELTGTWTMEGNKLVGKFKRVDNGKELIAVREISGNELIQTYTYEGVEAKRIFKKDRGHHHHHH			−0.40	−0.34	−0.19	−0.16								
	21W 72A (protein, listed as Rattus norvegicus, PEPTIDE (1)...(131) wild-type rat intestinal fatty acid binding protein) AFDGTWKVDRNENYEKFMEKWGINVVKRKLGAHDNLKLTITQEGNKFTVKESSNFRNIDVVFELGVDFAYSAADGTELTGTWTMEGNKLVGKFKRVDNGKELIAVREISGNELIQTYTYEGVEAKRIFKKE							2.808	Large Response, Favors AA	2.551	2.120	1.637	1.946	2.550	3.829
	38Y 18L 73V 72A (protein, listed as Rattus norvegicus, PEPTIDE (1)...(131) wild-type rat intestinal fatty acid binding protein) AFDGTWKVDRNENYEKFLEKMGINVVKRKLGAHDNLKYTITQEGNKFTVKESSNFRNIDVVFELGVDFAYSAVDGTELTGTWTMEGNKLVGKFKRVDNGKELIAVREISGNELIQTYTYEGVEAKRIFKKE							0.235	AA and SA	0.034	0.023	0.067	0.824	0.133	1.172
